Data from US20160168250A1 (Genentech, published 2016).

What was measured:
[1] = target: T1, human FGFR3-IIIb ECD-human Fc chimeric protein (human, UniProt P22607-2 23-377); experiment: direct ELISA: FGFR ECD-human Fc chimeric protein coated on the plate, R3Mab titrated, detection with HRP anti-human Fab
T1 construct: extracellular domain; also called FGFR3-Fc chimeric protein (IIIb); not shown: human Fc
T1 sequence (looked up): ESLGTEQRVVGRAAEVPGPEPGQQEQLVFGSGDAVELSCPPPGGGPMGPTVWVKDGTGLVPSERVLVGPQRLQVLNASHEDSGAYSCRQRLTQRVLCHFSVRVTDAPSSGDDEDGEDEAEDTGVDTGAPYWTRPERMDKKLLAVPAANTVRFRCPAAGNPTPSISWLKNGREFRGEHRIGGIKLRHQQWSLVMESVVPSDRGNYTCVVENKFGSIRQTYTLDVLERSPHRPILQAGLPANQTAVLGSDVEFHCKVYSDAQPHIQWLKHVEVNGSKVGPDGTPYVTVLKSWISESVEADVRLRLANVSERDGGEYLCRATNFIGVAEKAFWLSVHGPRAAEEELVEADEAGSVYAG
Source text: (§1) Specific binding was detected using an anti-human Fab antibody. […] Error bars represent standard error of the mean (SEM) and are sometimes smaller than symbols.
(§2) cDNAs encoding the extracellular domains (ECD) of human FGFR1-IIIb, IIIc, FGFR2-IIIb and IIIc, FGFR3-IIIb and IIIc, and FGFR4 were cloned into pRK-based vector to generate human FGFR-human Fc chimeric proteins. The recombinant proteins were produced by transiently transfecting Chinese hamster ovary (CHO) cells and purified via protein A affinity chromatography. To test binding of antibodies to human FGFRs, Maxisorp 96-well plates (Nunc) were coated overnight at 4° C. with 50 μl of 2 μg/ml of FGFR ECD-human Fc chimeric proteins. After blocking with phosphate-buffered saline (PBS)/3% BSA, FGFR3 antibody was added and incubated at RT for 2 hours. Specifically bound FGFR3 antibody was detected using an HRP-conjugated anti-human Fab and the TMB peroxidase colorigenic substrate (KPL, Gaithersburg, Md.).

[2] = target: T2, human FGFR4 ECD-human Fc chimeric protein (human, UniProt P22455 22-369); experiment: as above
T2 construct: extracellular domain; not shown: human Fc
Source text: as §1, §2

[3] = target: T3, FGFR3 on OPM2 cells (human, UniProt P22607); experiment: Scatchard analysis: radioiodinated (125I) R3Mab on OPM2 cells in suspension with unlabeled antibody, 2 h at room temperature; mean of two binding experiments
T3 construct: full length, on cells; also called FGFR3 K650E
Procedure: (§3) FIGS. 23A and 23B: Cell surface expression levels of FGFR3 in myeloma and bladder cancer cells. (FIG. 23A) Cell surface FGFR3 expression in myeloma cells and bladder cancer cells assessed by FACS analysis. Cells were stained with phycoerythin-conjugated mouse mAb against human FGFR3 (FAB766P, R&D Systems) or phycoerythin-conjugated isotype control mouse IgG1(BD Pharmingen). (FIG. 23B) Scatchard analysis of FGFR3 density in myeloma cells and bladder cancer cells. […] After incubation at RT for 2 hours, cells were pelleted by centrifugation and washed twice. Specifically bound ¹²⁵I was determined.

[4] = target: T4, His-tagged IgD2-D3 of human FGFR3-IIIb (human, UniProt P22607-2 143-374, limits assumed); experiment: BIAcore; R3Mab on CM5 chip, FGFR3-His injected
T4 construct: domain: IgD2-D3; also called FGFR3-IIIb-His protein; Human FGFR3 ECD IIIb; not shown: His tag
T4 sequence (looked up): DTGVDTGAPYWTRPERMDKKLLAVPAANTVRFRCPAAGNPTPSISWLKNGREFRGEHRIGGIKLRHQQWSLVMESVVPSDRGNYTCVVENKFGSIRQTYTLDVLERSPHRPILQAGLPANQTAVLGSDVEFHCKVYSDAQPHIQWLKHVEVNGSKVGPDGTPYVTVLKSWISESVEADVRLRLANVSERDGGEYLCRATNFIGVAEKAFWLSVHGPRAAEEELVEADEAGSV
Procedure: For kinetic measurement, two-fold serial dilutions of FGFR3-IIIb or IIIc-His protein (starting from 67 nM) were injected in PBST buffer at 25° C. with a flow rate of 30 μl/minute. Association rates (Kon, per mol/s) and dissociation rates (Koff, per s) were calculated using a simple one-one Langmuir binding model (BIAcore Evaluation Software version 3.2). The equilibrium dissociation constant (Kd, per mol) was calculated as the ratio of Koff/Kon.

[5] = target: T1, human FGFR3-IIIb ECD-human Fc chimeric …; experiment: ELISA: blocking of FGF1 binding to captured FGFR3-IIIb-Fc
Procedure: as §1
(§4) To test the effect of antibodies to FGFR3 on FGF/FGFR3 interaction, FGFR3-Fc chimeric proteins were captured on Maxisorp plate coated with anti-human immunoglobulin Fcγ fragment-specific antibody (Jackson Immunoresearch, West Grove, Pa.). After wash, increasing amount of FGFR3 antibody was added to the plate and incubated for 30 minutes.

[6] = target: T1, human FGFR3-IIIb ECD-human Fc chimeric …; experiment: ELISA: blocking of FGF9 binding to captured FGFR3-IIIb-Fc
Procedure: as §1, §4

[7] = target: T5, FGFR3 on UMUC-14 cells (human, UniProt P22607-2); experiment: Scatchard analysis: radioiodinated (125I) R3Mab on UMUC-14 cells in suspension with unlabeled antibody, 2 h at room temperature; mean of two binding experiments
T5 construct: full length, on cells; Same protein as r1, here on intact cells and not in lysates; also called FGFR3^S249C on cells
Procedure: as §3

[8] = target: T6, FGFR3 on RT112 cells (human, UniProt P22607-2); experiment: Scatchard analysis: radioiodinated (125I) R3Mab on RT112 cells in suspension with unlabeled antibody, 2 h at room temperature; mean of two binding experiments
T6 construct: full length, on cells; also called WT FGFR3
Procedure: as §3

[9] = target: T7, FGFR3 on KMS11 cells (human, UniProt P22607); experiment: Scatchard analysis: radioiodinated (125I) R3Mab on KMS11 cells in suspension with unlabeled antibody, 2 h at room temperature; mean of two binding experiments
T7 construct: full length, on cells; also called FGFR3 Y373C
Procedure: as §3

[10] = target: T4, His-tagged IgD2-D3 of human FGFR3-IIIb; experiment: BIAcore

Binder	EC50 (read off the curve) [1]	binding result [2]	Kd [3]	Kd [4]	koff [4]	kon [4]	IC50 [5]	IC50 [6]	Kd [7]	Kd [8]	Kd [9]	Kd [10]
anti-FGFR3 antibody clone 184.6.1N54S (antibody, V domains shown, also called R3Mab; R3 Mab) VH: EVQLVESGGGLVQPGGSLRLSCAASGFTFTSTGISWVRQAPGKGLEWVGRIYPTSGSTNYADSVKGRFTISADTSKNTAYLQMNSLRAEDTAVYYCARARTYGIYDLYVDYTEYVMDYWGQGTLV VL: DIQMTQSPSSLSASVGDRVTITCRASQDVDTSLAWYQQKPGKAPKLLIYSASFLYSGVPSRFSGSGSGTDFTLTISSLQPEDFATYYCQQSTGHPQTFGQGTKVEIKR	~0.3 nM	no binding (tested: about 60 nM)	0.64 nM	0.111 nM	0.0002 s⁻¹	1.8e+06 M⁻¹ s⁻¹	0.3 nM	1.1 nM	0.34 nM	0.16 nM	0.35 nM	–
anti-FGFR3 antibody clone 184.6.58 (antibody, V domains shown) VH: EVQLVESGGGLVQPGGSLRLSCAASGFTFTSTGISWVRQAPGKGLEWVGRIYPTNGSTNYADSVKGRFTISADTSKNTAYLQMNSLRAEDTAVYYCARTYGIYDLYVDYTEYVMDYWGQGTLVTVSS VL: DIQMTQSPSSLSASVGDRVTITCRASQDVDISLAWYQQKPGKAPKLLIYSASSLASGVPSRFSGSGSGTDFTLTISSLQPEDFATYYCQQGAGNPYTFGQGTKVEIK	–	–	–	–	–	–	–	–	–	–	–	0.19 nM
